We go through five molecules from patent publication US20160264680A1 (INSERM INSTITUT NATIONAL DE LA SANTE ET DE LA RECHERCHE …, published 2016).

For assay [1], the target named is wild type human KIT on cells (TF-1, Ba/F3-KIT, UT-7/EPO) (human) (UniProt P10721). The assay can be described thus: cell-based or functional assay.
Assay [2] concerns the target T1, recombinant soluble human KIT extracellular domain (KIT-ECD), C-terminal 6His tag (human, UniProt P10721 26-509, biotinylated in the yeast display assays (sites not given)).
T1 construct: range 26-509; Made in High Five insect cells with a baculovirus, purified on Ni-NTA; major protein of 60 kD; Monovalent; also called c-KIT ECD; recombinant KIT
Briefly: flow cytometry of yeast displaying the scFv with biotinylated KIT-ECD, streptavidin-PE.

Assay [3] has as its target T1, recombinant soluble human KIT …. The assay can be described thus: soluble scFv ELISA on KIT-ECD.
Assay [4] has as its target T2, human KIT V560G D816V as expressed on HMC1.2 mastocytoma cells (human, UniProt P10721 26-976).
T2 construct: whole, on cells; also called endogenous KIT on HMC1.2
The assay can be described thus: FACS on HMC1.2 cells, soluble scFv from concentrated bacterial supernatant, detected with anti-c-myc and anti-mouse Ig-PE [panel D].
Experimental: (D) FACS analysis of scFv binding to HMC1.2 cells. ScFvs were induced with IPTG 1 mM overnight at 25° C. from TG1 bacterial containing pHEN phagemid. Supernatant was collected, concentrated on Amicon ultra-4 centrifugal units and incubated with HMC1.2 cells at 4° C. ScFv binding to cells was detected with an anti-c-myc antibody and anti-mouse immunoglobulins conjugated to phycoerythrin. Fluorescence was measured by FACS.
Two hundred thousand HMC1.2 cells were resuspended in 100 μL of PBS-1% FBS at 4° C. (FACS buffer). One hundred μL of culture supernatant was added to the cells during 2 hours at 4° C. Cells were washed with FACS buffer and scFv binding to cells was detected with an anti-c-myc antibody (9E10; Sigma) followed by goat anti-mouse immunoglobulins (Ig) conjugated to PE (Beckton Dickinson).

T1 sequence (P10721 other isoform, or with tags, fused parts or gaps limits assumed): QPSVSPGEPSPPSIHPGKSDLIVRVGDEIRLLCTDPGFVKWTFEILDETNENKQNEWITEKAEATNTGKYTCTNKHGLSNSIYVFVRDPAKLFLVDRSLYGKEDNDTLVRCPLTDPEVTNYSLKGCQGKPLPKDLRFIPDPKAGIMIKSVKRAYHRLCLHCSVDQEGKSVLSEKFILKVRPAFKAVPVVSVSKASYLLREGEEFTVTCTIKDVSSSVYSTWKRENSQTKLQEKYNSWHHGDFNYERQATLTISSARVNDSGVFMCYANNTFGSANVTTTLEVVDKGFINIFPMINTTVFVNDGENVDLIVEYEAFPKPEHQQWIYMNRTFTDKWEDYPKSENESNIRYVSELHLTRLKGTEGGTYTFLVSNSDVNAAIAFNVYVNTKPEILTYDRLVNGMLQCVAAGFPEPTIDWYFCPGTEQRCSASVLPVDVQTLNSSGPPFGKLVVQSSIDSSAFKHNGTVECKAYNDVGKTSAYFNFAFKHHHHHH
T2 sequence (P10721 26-976 V560G/D816V): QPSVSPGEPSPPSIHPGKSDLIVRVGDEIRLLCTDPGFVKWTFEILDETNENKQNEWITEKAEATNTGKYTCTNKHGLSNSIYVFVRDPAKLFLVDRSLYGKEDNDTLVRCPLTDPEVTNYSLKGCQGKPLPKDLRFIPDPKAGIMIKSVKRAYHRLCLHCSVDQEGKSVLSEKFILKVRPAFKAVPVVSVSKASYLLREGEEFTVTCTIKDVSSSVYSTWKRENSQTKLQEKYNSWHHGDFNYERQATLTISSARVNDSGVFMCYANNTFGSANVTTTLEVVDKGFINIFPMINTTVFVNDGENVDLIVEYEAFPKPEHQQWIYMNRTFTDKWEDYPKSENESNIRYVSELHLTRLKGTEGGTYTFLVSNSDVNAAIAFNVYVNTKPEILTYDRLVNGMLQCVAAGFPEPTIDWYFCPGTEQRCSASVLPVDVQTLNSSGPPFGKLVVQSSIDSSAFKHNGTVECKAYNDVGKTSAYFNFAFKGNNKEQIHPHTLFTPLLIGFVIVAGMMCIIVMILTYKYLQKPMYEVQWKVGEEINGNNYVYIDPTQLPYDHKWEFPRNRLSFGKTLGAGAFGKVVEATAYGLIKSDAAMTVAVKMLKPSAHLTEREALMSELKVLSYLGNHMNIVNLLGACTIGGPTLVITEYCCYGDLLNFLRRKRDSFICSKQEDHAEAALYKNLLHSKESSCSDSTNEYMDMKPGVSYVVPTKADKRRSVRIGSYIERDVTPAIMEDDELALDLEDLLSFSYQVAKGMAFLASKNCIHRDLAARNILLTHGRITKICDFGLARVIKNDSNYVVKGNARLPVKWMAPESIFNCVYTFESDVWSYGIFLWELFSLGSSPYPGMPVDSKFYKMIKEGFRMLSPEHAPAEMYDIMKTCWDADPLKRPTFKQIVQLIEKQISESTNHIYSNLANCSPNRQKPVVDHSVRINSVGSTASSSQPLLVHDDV
Sequence of wild type human KIT on cells (TF-1, Ba/F3-KIT, UT-7/EPO) (human) (P10721 26-976): as the sequence (P10721 26-976 V560G/D816V) above, with G535V, V791D counted along it

“mouse SCF in CHO-KL culture supernatant (from UniProt P20826 26-190) (ligand)”: the KIT surface down-regulation on UT-7/EPO cells after 1 hour (FACS with 104D2) in assay [1] worked out at 70%.

B1: affinity matured scFv-3G1A2 displayed on yeast (scFv)
chain: MAQVQLVESWGGVAQPGRSLRLSCAASGFTFSSFAMHWVRQAPGKGLEWVAVTSYDGSNEYYADSVKGRFTISRDNSKNTLYLQMNSLRAEDTAVYYCAKAMVRGVTFGDLDYWGQGTLVTVSSGGGGSGGGGSGGGGSSELTQDPAVSVALGQTVRKTCQGDSLKSYYASWYQQKPGQAPVLVIYGENSRPSGIPDRFSGSSSGNTASLTITGAQAEDEADYYCCSRATGGYHRIFGGGTKLTVLG
B1: the dissociation constant Kd in assay [2] came out at 1.7 nM.

B2: affinity matured scFv-2D1C7 displayed on yeast (scFv)
chain: MAQVKLQESGGGLVQPGGSLRLSCAASGFTFDSYAMSWVRQAPGKGLEWVSYITSSSSTIYYVDSVKGRFTISRDNAKNSLYLQMNSLRDEDTAVYYCARLRNSEGYWYFDLWGRGTLVTVSSGGGGSGGGGSGGGGSQSVLTQDPAVSVALGQTVRITCQGDSLRSYYASWYQQKPGQAPLLVMYGENIRPSGIPDRFSGSTSGNSASLTITGAQAEDEADYYCNSRDSSGNHLNWVFGGGTKLTVLG
As to B2, the Kd in assay [2] amounted to 4.2 nM.

B3: scFv 3G1, soluble monovalent scFv (scFv)
scFv: MAQVQLVESWGGVAQPGRSLRLSCAASGFTFSSFAMHWVRQAPGKGLEWVAVTSYDGSNEYYADSVKGRFTISRDNSKNTLYLQMNSLRAEDTAVYYCAKAMVRGVTFGDLDYWGQGTLVTVSSGGGGSGGGGSGGGGSSELTQDPAVSVALGQTVRITCQGDSLRSYYASWYQQKPEQAPVLVIYGENSRPSGIPDRFSGSSSGNTASLTITGAQAEDEADYYCNSRDSSGTHLRVFGGGTKLTVLG
notes: Expressed from phagemid pHEN in E. coli TG1, used as culture supernatant
Consider B3, for which the binding result in assay [3] and in assay [4] was “binds” each time.

B4: scFv 2D1, soluble monovalent scFv (scFv)
scFv: MAQVKLQESGGGLVQPGGSLRLSCAASGFTFDSYAMSWVRQAPGKGLEWVSYITSSSSTIYYVDSVKGRFTISRDNAKNSLYLQMNSLRDEDTAVYYCARLRNSEGYWYFDLWGRGTLVTVSSGGGGSGGGGSGGGGSQSALTQDPAVSVALGQTVRITCQGDSLRSYFASWYQQKPGQAPLLVMYGQNIRPSGIPDRFSGSSSGNSASLTITGAQAEDEADYYCNSRDSSYNHWVFGGGTKLTVLG
notes: as for B3
B4: the binding result in assay [3] and in assay [4] was “binds” each time.
